Measurements published in the supplement of paper PMC7877785.
± gives the uncertainty stated by the source.

Assay: self-splicing fitness, log relative to wild type (ln ratio); higher = more splicing; Tetrahymena group I intron in knt gene, E. coli kanamycin selection, DiMSum; sequences stand for … in CUCUCU…GGAGGGAAAAGUUAUCAGGCAUGCACCUGGUAGCUAGUCUUUAAACCAAUAGAUUGCAUCGGUUUAAAAGGCAAGACCGUCAAAUUGCGGGAAAGGGGUCAACAGCCGUUCAGUACCAAGUCUCAGGGGAAACUUUGAGAUGGCCUUGCAAAGGGUAUGGUAAUAAGCUGACGGACAUGGUCCUAACCACGCAGCCAAGUCCUAAGUCAACAGAUCUUCUGUUGAUAUGGAUGCAGUUCACAGACUAAAUGUCGGUCGGGGAAGAUGUAUUCUUCUCAUAAGAUAUAGUCGGACCUCUCCUUAAUGGGAGCUAGCGGAUGAAGUGAUGCAACACUGGAGCCGCUGGGAACUAAUUUGUAUGCGAAAGUAUAUUGAUUAGUUUUGGAGUACUCGUGGUCG
Procedure, shortened: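 Colonies from six replicate transformations of E. coli BL21(DE3) were pooled and amplicon-sequenced on an Illumina HiSeq 2500. The library placed an intron with all eight P1ex-region nucleotides randomised inside the knt kanamycin-resistance gene on pET-22b(+), and cells grew overnight at 37°C or 30°C on LB agar with or without 25 μg/mL kanamycin (plus 100 μg/mL carbenicillin, 50 μM IPTG, 0.2% rhamnose). Fitness is the DiMSum error-weighted combination of wild-type-normalised replicate fold changes, kanamycin versus none.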

| Sequence | self-splicing fitness (ln) (30 °C) | self-splicing fitness (ln) (37 °C) |
| --- | --- | --- |
| GAGUAGCAAUAUUACGUCAU | -2.58 ± 0.13 | -1.47 ± 0.13 |
| GAGUAGCAAUAUUACGUGAU | -3.6 ± 0.33 | -2.12 ± 0.34 |
| GAGUAGCAAUAUUACGUGUG | -2.73 ± 0.11 | -1.87 ± 0.12 |
| GAUAAGCAAUAUUACGAAGA | -3.41 ± 0.24 | -1.7 ± 0.22 |
| GAUAAGCAAUAUUACGACUA | -0.184 ± 0.086 | -0.149 ± 0.1 |
| GAUAAGCAAUAUUACGAGCA | -2.12 ± 0.18 | -0.853 ± 0.16 |
| GAUAAGCAAUAUUACGAGUA | -1.84 ± 0.15 | -1.45 ± 0.14 |
| GAUAAGCAAUAUUACGAGUG | -1.04 ± 0.074 | -0.835 ± 0.066 |
| GAUAAGCAAUAUUACGAUAU | -1.13 ± 0.095 | -0.335 ± 0.15 |
| GAUAAGCAAUAUUACGAUGU | -0.525 ± 0.082 | -0.545 ± 0.1 |
| GAUAAGCAAUAUUACGCAAC | – | -0.343 ± 0.46 |
| GAUAAGCAAUAUUACGCACC | -1.96 ± 0.16 | -0.327 ± 0.2 |
| GAUAAGCAAUAUUACGCCAU | -2.79 ± 0.21 | -1.72 ± 0.17 |
| GAUAAGCAAUAUUACGCUCA | -1 ± 0.07 | 0.0635 ± 0.097 |
| GAUAAGCAAUAUUACGCUGC | -2.88 ± 0.23 | -3.04 ± 0.3 |
| GAUAAGCAAUAUUACGGAGU | -2.46 ± 0.16 | -0.942 ± 0.14 |
| GAUAAGCAAUAUUACGGCUA | -0.974 ± 0.12 | 0.143 ± 0.15 |
| GAUAAGCAAUAUUACGGGGA | – | -2.16 ± 0.23 |
| GAUAAGCAAUAUUACGGUAG | -3.17 ± 0.23 | -2.35 ± 0.27 |
| GAUAAGCAAUAUUACGUCGU | -1.68 ± 0.072 | -0.373 ± 0.086 |
| GAUAAGCAAUAUUACGUCUC | -1.74 ± 0.085 | -0.95 ± 0.1 |
| GAUAAGCAAUAUUACGUCUU | -0.224 ± 0.069 | 0.135 ± 0.088 |

| Sequence | self-splicing fitness (ln) (30 °C) | self-splicing fitness (ln) (37 °C) |
| --- | --- | --- |
| GAUCAGCAAUAUUACGAAAC | -0.961 ± 0.39 | 0.628 ± 0.41 |
| GAUCAGCAAUAUUACGAAAG | -0.98 ± 0.14 | -1.2 ± 0.24 |
| GAUCAGCAAUAUUACGAAAU | -0.667 ± 0.081 | 0.175 ± 0.1 |
| GAUCAGCAAUAUUACGAAGA | -0.925 ± 0.11 | -0.0626 ± 0.11 |
| GAUCAGCAAUAUUACGAAGG | -2.62 ± 0.13 | -1.59 ± 0.14 |
| GAUCAGCAAUAUUACGAGAU | -3 ± 0.15 | -1.55 ± 0.13 |
| GAUCAGCAAUAUUACGAUGC | -0.684 ± 0.12 | 0.0112 ± 0.12 |
| GAUCAGCAAUAUUACGAUUC | -3.05 ± 0.38 | -1.79 ± 0.27 |
| GAUCAGCAAUAUUACGCACC | -0.91 ± 0.18 | -0.086 ± 0.23 |
| GAUCAGCAAUAUUACGCGAG | -0.684 ± 0.07 | -1.15 ± 0.073 |
| GAUCAGCAAUAUUACGCUGU | -3.03 ± 0.21 | -2.38 ± 0.16 |
| GAUCAGCAAUAUUACGGAAA | -1.01 ± 0.16 | -0.212 ± 0.17 |
| GAUCAGCAAUAUUACGGACU | -0.52 ± 0.12 | -0.894 ± 0.13 |
| GAUCAGCAAUAUUACGGGCU | -1.98 ± 0.085 | -1.4 ± 0.1 |
| GAUCAGCAAUAUUACGGGGG | -3.25 ± 0.18 | -2.51 ± 0.18 |
| GAUCAGCAAUAUUACGUCAC | -3.88 ± 0.2 | -2.13 ± 0.15 |
| GAUCAGCAAUAUUACGUCUG | -2.63 ± 0.11 | -1.84 ± 0.1 |
| GAUCAGCAAUAUUACGUGAG | -0.0667 ± 0.052 | 0.101 ± 0.074 |
| GAUCAGCAAUAUUACGUUGC | -2.84 ± 0.27 | -3.1 ± 0.31 |
| GAUGAGCAAUAUUACGAGCA | -2.59 ± 0.37 | – |
| GAUGAGCAAUAUUACGAGUA | -3.4 ± 0.43 | -1.92 ± 0.2 |
